Experimental data taken from patent publication US20250092124A1.

Experiments:
[1] = target: GDF15-mFC protein (human; mouse) (UniProt Q99988); experiment: blocking ELISA as in Example 4, GFRAL-hIgG1 Fc coated (competitor), GDF15-mFC mixed with antibody
[2] = target: GDF15-HIS (ACROBiosystems, CAT #: GD5-H5149) (human) (UniProt Q99988); experiment: ELISA, GDF15-HIS coated
[3] = target: GDF15-HIS (ACROBiosystems, CAT #: GD5-H5149) (human) (UniProt Q99988); experiment: cell-based or functional assay
[4] = target: GDF15-HIS (ACROBiosystems, CAT #: GD5-H5149) (human) (UniProt Q99988); experiment: BLI (ForteBio Octet), antibody immobilised, GDF15 200-6.25 nM
[5] = target: GDF15-HIS (ACROBiosystems, CAT #: GD5-H5149) (human) (UniProt Q99988)
[6] = target: GDF15-mFC protein (human; mouse) (UniProt Q99988); experiment: competitive ELISA, GFRAL-HIS coated (competitor), GDF15-mFc 0.3 µg/ml pre-incubated with antibody

GDF15-mFC protein (human; mouse), sequence (Q99988 197-308): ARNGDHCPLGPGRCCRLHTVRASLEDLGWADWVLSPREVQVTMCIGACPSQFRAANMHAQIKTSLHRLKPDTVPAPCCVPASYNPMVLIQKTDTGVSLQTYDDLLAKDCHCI
GDF15-HIS (ACROBiosystems, CAT #: GD5-H5149) (human), sequence (Q99988 197-308 limits assumed): as the sequence (Q99988 197-308) above

IC50 [1]: 0.504 µg/mL
OD450.Max [1]: 1.02 OD450
EC50 [2]: 0.096 µg/mL
OD450.Max [2]: 1.1 OD450
Bottom (luciferase activity fold, fitted curve), HEK293 SRE-LUC2-cRET-GFRAL reporter cells [3]: 1.07
IC50, luciferase in HEK293 SRE-LUC2-cRET-GFRAL reporter cells stimulated with GDF15-His 5 ng/ml [3]: 0.0321 µg/mL
Kd [4]: < 1 pM
koff [4]: < 1e-07 s⁻¹
kon [4]: 711000 M⁻¹ s⁻¹
EC50 (read off the curve) of GDF15-His for luciferase induction with 0.1 µg/ml antibody present [5]: 0.01 µg/mL
IC50 [6]: 0.504 µg/mL
OD450.Max [6]: 1.02 OD450
B1: Ponsegromab (antibody, INN chains, looked up, V domains shown)
VH: QVQLVQSGAEVKKPGSSVKVSCKASGYTFSSYNIDWVRQAPGQGLEWMGGINPIFGTAFYNQKFQGRVTITADESTSTAYMELSSLRSEDTAVYYCAREAITTVGAMDHWGQGTLVTVSS
VL: EIVLTQSPATLSLSPGERATLSCRTSQSVHNYLAWYQQKPGQAPRLLIYDASTRADGIPARFSGSGSGTDFTLTISSLEPEDFAVYYCQQFWSWPWTFGQGTKVEIK
